Our source for the Kd and binding signal (% reduction vs S8) values is publication PMC6312627.

Data set [1] deals with streptavidin-phycoerythrin (SA-PE) (UniProt P22629). The data set can be described thus: bead-based flow cytometry. The settings on record: PBSMCT selection buffer (PBS with Mg2+, CaCl2, 0.01% Tween 20; full composition not in material), pH 7.4 or pH 5.2 (HCl); bead assays at RT, MST at 25 C with …. (A flow cytometer gives signals particle by particle.)
Data set [2] addresses streptavidin (MST) (UniProt P22629). The data set can be described thus: MST. As to conditions: PBSMCT selection buffer (PBS with Mg2+, CaCl2, 0.01% Tween 20; full composition not in material), pH 7.4 or pH 5.2 (HCl); bead assays at RT, MST at 25 C with ….
The target is the same in data set [3]. The data set can be described thus: MST. As to conditions: PBSMCT selection buffer (PBS with Mg2+, CaCl2, 0.01% Tween 20; full composition not in material), pH 7.4 or pH 5.2 (HCl); bead assays at RT, MST at 25 C with …. The source holds these as a separate data set.
Data set [4] has as its target streptavidin-phycoerythrin (SA-PE) (UniProt P22629). The data set can be described thus: bead-based flow cytometry. The settings on record: PBSMCT selection buffer (PBS with Mg2+, CaCl2, 0.01% Tween 20; full composition not in material), pH 7.4 or pH 5.2 (HCl); bead assays at RT, MST at 25 C with …. This is another data set of the same source.
Data set [5] addresses streptavidin (MST) (UniProt P22629). The data set can be described thus: cited. The settings on record: PBSMCT selection buffer (PBS with Mg2+, CaCl2, 0.01% Tween 20; full composition not in material), pH 7.4 or pH 5.2 (HCl); bead assays at RT, MST at 25 C with …; cited from earlier work.

In data set [1], “ATACCAGCTTATTCAATTATTGACCGCTGTGTGACGCAACACTCAATACCTTCTCAACGTTCTCTGTAGATAGTAAGTGCAATCT [S3]” gave a Kd of 24.2 nM.

For the sequence “ATACCAGCTTATTCAATTATTGACCGCTGTGTGACGCAACACTCAATTCTTGGATCTCGCTGCACACAGATAGTAAGTGCAATCT [S8]”, the Kd in data set [1] came out at 112 nM; in data set [2], 10 nM.

“ATACCAGCTTATTCAATTATTGACCGCTGTGTGACGCAACACTCAATTCTTGGATCTCGCGGCACACAGATAGTAAGTGCAATCT [S8 G61]” showed a binding signal (% reduction vs S8) in data set [1] of 75.

As for “ATACCAGCTTATTCAATTATTGACCGCTGTGTGACGCAACACTCAATTCTTGGATCTCGCTTCACACAGATAGTAAGTGCAATCT [S8 T62]”, in data set [1], the binding signal (% reduction vs S8) stood at 65.

For ATTGACCGCTGTGTGACGCAACACTCAAT [SBA29], the dissociation constant (Kd) in data set [3] was 27 nM; in data set [1], 10.4 nM; in data set [4], 3.5 nM; in data set [2], 6.1 nM; in data set [5] it was 40 nM.

Usually Kd stands for the constant that tells how readily two partners part at equilibrium.
